{"source": "paper PMC10311464", "binders": {"B1": {"name": "rs678849 T allele probe (dsDNA)", "DNA 1": "TCAAAAGTACCTGCT", "DNA 2": "AGCAGGTACTTTTGA"}}, "molecular_target": "hnRNP D0 isoform 3, Myc-DDK-tagged (Origene RC200660) (UniProt Q14103-3 1-306)", "experiment": "EMSA", "data": [{"binder": "B1", "values": [{"measurement": "binding result", "result": "binds"}]}]}
